The experiment has as its target 新冠病毒RBD蛋白 (SARS-CoV-2 spike receptor binding domain, expressed and purified) (SARS-CoV-2, UniProt P0DTC2 319-541).

B1: 单克隆抗体35B5 (monoclonal antibody 35B5) (antibody, V domains shown, not shown: large carriers)
VH: QVQLLESGGGLVQPGRSLRLSCAASGFTFDDYAMHWVRQAPGKGLEWVSGVSWNSGTIGYADSVKGRFTISRDNAKNSLYLHMRSLRAEDTALYYCAKAVEMVRGLMGLGADPEYGMDVWGQGTTVTVSS
VL: not shown
For B1, the Kd is 2.19 pM.

(Values after patent CN113388031A (SHANGHAI INSTITUTE FOR ADVANCED STUDY OF ZHEJIANG UNIV, dated 2021).)
